Measurements as given in the supplement of paper PMC10567573.

B1: PLAGL1 (parent)
chain: DPNKMAFGCEECGKKYNTMLGYKR

Variants of: B1
Assay: protein stability index of a GFP-peptide fusion (GPS, HEK-293T) (PSI 1-6); higher = more stable
Details: c terminus: a fixed tail appended
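Also: lentivirally expressed fusions sorted by FACS into six bins by GFP to DsRed ratio, PSI derived from sequencing read proportions per bin multiplied by bin number.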

Protein stability index: each site, then its substitutions
T18: S 2.39, E 2.77, G 3.07, N 2.3, F 2.15, P 2.78, Q 3.04, I 2.63, A 3.2, K 3.01, C 2.35, H 2.81, M 2.18, D 2.42, V 1.42, L 1.85, R 2.6, Y 1.87
C9: L 3.9, I 3.32, V 4.21, Q 4.16, M 3.16, E 3.52, G 3.67, R 4.08, Y 3.61, W 3.01, D 3.78, K 3.6, N 4.01, T 4.07, S 4.08, P 3.43, A 3.38, F 3.32
C12: W 2.93, G 4.29, I 2.6, S 3.52, Y 3.92, V 4.43, K 4.4, M 3.93, F 3.44, P 4.01, A 4.36, Q 4.24, R 4.61, T 3.78, H 2.98, E 4.78, D 4.49, L 3.3, N 4.1
K14: Y 1.95, E 3.44, I 2.46, N 3.06, G 2.29, A 2.93, T 3.14, W 3.05, S 2.39, P 2.88, Q 3.04, V 2.37, L 1.54, M 2.56, H 1.99, R 1.99, D 2.98, F 2.23
M5: G 2.81, D 3.54, E 3.31, I 2.38, P 2.2, A 2.63, L 2.67, R 2.36, C 3.04, N 2.48, Y 2.33, W 2.35, H 2.73, Q 2.26, K 2.26, S 2.81, T 2.88, V 1.93, F 2.15
Y16: D 2.88, R 3.4, G 2.17, F 2.68, L 3.25, T 3.51, I 2.13, P 3.07, M 2.71, N 3.04, C 2.58, W 2.72, H 2.73, S 2.62, Q 2.44, A 2.82, K 3.16, V 2.73, E 3.2
A6: G 2.02, N 2.58, D 2.9, M 2.75, R 2.19, L 3.02, K 2.97, E 3.09, Y 2.19, S 2.33, V 2.04, H 2.53, T 2.29, P 2.53, F 2.32, I 2.46, W 2.9, C 2.35, Q 2.36
N17: C 2.2, L 1.91, Q 2.73, H 2.91, S 1.66, D 2.33, P 2.35, F 3.25, E 2.31, I 2.44, M 1.75, G 1.52, V 1.78, A 2.82, T 1.99, K 3.06, W 1.76, R 2.02
N3: K 3.1, E 2.52, H 2.61, M 2.82, P 2.26, I 2.19, V 2.69, C 2.23, Y 2.14, T 2.79, F 2.15, W 2.23, A 2.21, G 2.8, Q 3.51, R 2.25, L 3.54, S 2.87
E10: F 2.4, G 2.3, K 2.6, H 2.11, A 1.74, P 2.3, V 2.37, S 3.23, N 2.29, R 1.64, W 3.11, Q 2.54, M 1.96, C 1.74, L 1.92, Y 1.92, T 2.21, I 2.51
K4: N 2.55, R 1.64, W 2.08, M 2.6, H 2.35, D 2.53, A 2.35, C 2.45, Q 2.61, L 2.85, V 1.98, P 3.01, S 2.48, I 1.95, E 3.3, T 2.61, Y 2.59, G 2.72, F 1.61
G8: V 2.92, M 1.96, F 1.68, C 2.19, H 2.5, P 2.31, K 2.14, L 2.82, I 2.76, S 2.19, Y 2.21, W 2.03, N 2.74, E 2.74, Q 1.98, D 2.73, T 3.12
K15: M 1.73, I 1.58, W 2.27, P 2.81, G 2.3, R 1.52, E 3.03, H 1.98, Y 1.71, T 2.58, C 2.63, N 2.99, F 1.81, S 1.96, L 2.19, D 3.12, V 2.27, A 2.73, Q 3.14
E11: Y 1.92, L 3.19, M 2.68, I 2.45, F 1.85, R 1.53, P 2.83, G 1.77, S 2.5, T 1.9, N 2.52, A 2.96, Q 1.99, H 2.28, W 1.37, D 2.65, K 2.49, V 2.79, C 1.44
M19: Y 2.49, W 2.11, R 2.99, S 2.83, H 1.32, I 2.25, T 2.74, V 2.14, A 3.16, G 2.64, P 2.27, C 2.57, K 3.55, E 2.32, F 1.9, N 2.37, L 2.82, Q 2.94
L20: A 2.23, D 2.82, H 3.08, E 3.51, F 2.18, G 2.46, C 2.59
G13: L 3.01, E 2.63, D 2.81, F 1.93, A 2.33, H 2.45, P 3.96, W 3.27, S 2.98, C 1.97, V 1.39, K 2.04, Y 2.32, M 1.82, R 2.53, I 2.49, N 2.12, Q 2.35, T 2.33
P2: S 2.7, M 3.12, W 1.82, Y 2.51, T 2.03, L 2.15, V 2, N 2.12, H 1.86, G 2.05, K 2.57, Q 1.92, R 3.98, I 1.88
F7: Y 2.53, G 3.17, I 2.98, W 1.74, R 1.92, A 3.27, P 2.57, M 2.58, V 2.43, T 2.3, S 3.43, N 2.45, H 2.19, D 2.59, K 2.31, E 3.21, C 2.22, Q 3.45
